Results on 6 molecules are retold here after patent US12679878B2, “CRF2 receptor agonists and their use in therapy” (SANOFI, priority 2020, dated 2026).

This assay deals with T1, CRF1R receptor (anti-target) (UniProt P34998 24-415, limits assumed).
T1 sequence (looked up): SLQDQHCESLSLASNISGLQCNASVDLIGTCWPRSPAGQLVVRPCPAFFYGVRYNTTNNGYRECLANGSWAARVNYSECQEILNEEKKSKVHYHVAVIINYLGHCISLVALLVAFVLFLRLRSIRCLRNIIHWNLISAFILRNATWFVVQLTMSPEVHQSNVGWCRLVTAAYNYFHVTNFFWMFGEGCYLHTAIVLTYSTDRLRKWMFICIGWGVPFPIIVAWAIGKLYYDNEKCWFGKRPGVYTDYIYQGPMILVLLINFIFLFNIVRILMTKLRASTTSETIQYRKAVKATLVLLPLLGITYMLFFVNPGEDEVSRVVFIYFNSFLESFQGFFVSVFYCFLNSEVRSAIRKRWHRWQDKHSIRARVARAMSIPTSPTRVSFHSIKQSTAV
The assay can be described thus: cell-based or functional assay.

Starred links: 1 amine or outer side, 2 acyl side, 3 side chain; linkers in the order of their positions; H or OH if unused. Non-standard residues stand in square brackets, D forms with d. Groups on a side chain read outwards from the residue. No end group written: not given here. *: point of attachment. C18 diacid = O=C(O)CCCCCCCCCCCCCCCCC(=O)*; γGlu = O=C(O)[C@H](CCC(=O)[*:2])N[*:1]; AEEA = NCCOCCOCC(=O)O; Aib = CC(C)(N)C(=O)O

B1: peptide of SEQ ID NO: 121 (peptide)
peptide: IVLSLDVPIKLK([AEEA-AEEA-γGlu-C18 diacid])QILLKQERQKKQREKAEKNKQILAQV-NH2
modifications: N-terminus assumed
SMILES: CC[C@H](C)[C@H](N)C(=O)N[C@H](C(=O)N[C@@H](CC(C)C)C(=O)N[C@@H](CO)C(=O)N[C@@H](CC(C)C)C(=O)N[C@@H](CC(=O)O)C(=O)N[C@H](C(=O)N1CCC[C@H]1C(=O)N[C@H](C(=O)N[C@@H](CCCCN)C(=O)N[C@@H](CC(C)C)C(=O)N[C@@H](CCCCNC(=O)COCCOCCNC(=O)COCCOCCNC(=O)CC[C@H](NC(=O)CCCCCCCCCCCCCCCCC(=O)O)C(=O)O)C(=O)N[C@@H](CCC(N)=O)C(=O)N[C@H](C(=O)N[C@@H](CC(C)C)C(=O)N[C@@H](CC(C)C)C(=O)N[C@@H](CCCCN)C(=O)N[C@@H](CCC(N)=O)C(=O)N[C@@H](CCC(=O)O)C(=O)N[C@@H](CCCNC(=N)N)C(=O)N[C@@H](CCC(N)=O)C(=O)N[C@@H](CCCCN)C(=O)N[C@@H](CCCCN)C(=O)N[C@@H](CCC(N)=O)C(=O)N[C@@H](CCCNC(=N)N)C(=O)N[C@@H](CCC(=O)O)C(=O)N[C@@H](CCCCN)C(=O)N[C@@H](C)C(=O)N[C@@H](CCC(=O)O)C(=O)N[C@@H](CCCCN)C(=O)N[C@@H](CC(N)=O)C(=O)N[C@@H](CCCCN)C(=O)N[C@@H](CCC(N)=O)C(=O)N[C@H](C(=O)N[C@@H](CC(C)C)C(=O)N[C@@H](C)C(=O)N[C@@H](CCC(N)=O)C(=O)N[C@H](C(N)=O)C(C)C)[C@@H](C)CC)[C@@H](C)CC)[C@@H](C)CC)C(C)C)C(C)C
In the case of B1, the “EC50 [nM] 0% HSA (cAMP, HTRF)” value is over 100 nM and the “Emax (%) (100% = Sauvagine at 100 nM)” value was -1.1%.

B2: peptide of SEQ ID NO: 123 (peptide)
peptide: IVLSLDVPIKLK([AEEA-AEEA-γGlu-C18 diacid])QILLEQARQK[Aib]QRAQAEKNKRILERV-NH2
modifications: N-terminus assumed
SMILES: CC[C@H](C)[C@H](N)C(=O)N[C@H](C(=O)N[C@@H](CC(C)C)C(=O)N[C@@H](CO)C(=O)N[C@@H](CC(C)C)C(=O)N[C@@H](CC(=O)O)C(=O)N[C@H](C(=O)N1CCC[C@H]1C(=O)N[C@H](C(=O)N[C@@H](CCCCN)C(=O)N[C@@H](CC(C)C)C(=O)N[C@@H](CCCCNC(=O)COCCOCCNC(=O)COCCOCCNC(=O)CC[C@H](NC(=O)CCCCCCCCCCCCCCCCC(=O)O)C(=O)O)C(=O)N[C@@H](CCC(N)=O)C(=O)N[C@H](C(=O)N[C@@H](CC(C)C)C(=O)N[C@@H](CC(C)C)C(=O)N[C@@H](CCC(=O)O)C(=O)N[C@@H](CCC(N)=O)C(=O)N[C@@H](C)C(=O)N[C@@H](CCCNC(=N)N)C(=O)N[C@@H](CCC(N)=O)C(=O)N[C@@H](CCCCN)C(=O)NC(C)(C)C(=O)N[C@@H](CCC(N)=O)C(=O)N[C@@H](CCCNC(=N)N)C(=O)N[C@@H](C)C(=O)N[C@@H](CCC(N)=O)C(=O)N[C@@H](C)C(=O)N[C@@H](CCC(=O)O)C(=O)N[C@@H](CCCCN)C(=O)N[C@@H](CC(N)=O)C(=O)N[C@@H](CCCCN)C(=O)N[C@@H](CCCNC(=N)N)C(=O)N[C@H](C(=O)N[C@@H](CC(C)C)C(=O)N[C@@H](CCC(=O)O)C(=O)N[C@@H](CCCNC(=N)N)C(=O)N[C@H](C(N)=O)C(C)C)[C@@H](C)CC)[C@@H](C)CC)[C@@H](C)CC)C(C)C)C(C)C
Consider B2, for which the “EC50 [nM] 0% HSA (cAMP, HTRF)” value is over 100 nM and the “Emax (%) (100% = Sauvagine at 100 nM)” value stood at 9%.

B3: peptide of SEQ ID NO: 119 (peptide)
peptide: IVLSLDVPIKLK([AEEA-AEEA-γGlu-C18 diacid])QILLKQERQKK[Aib]RQKAEKNKQILAQV-NH2
modifications: N-terminus assumed
SMILES: CC[C@H](C)[C@H](N)C(=O)N[C@H](C(=O)N[C@@H](CC(C)C)C(=O)N[C@@H](CO)C(=O)N[C@@H](CC(C)C)C(=O)N[C@@H](CC(=O)O)C(=O)N[C@H](C(=O)N1CCC[C@H]1C(=O)N[C@H](C(=O)N[C@@H](CCCCN)C(=O)N[C@@H](CC(C)C)C(=O)N[C@@H](CCCCNC(=O)COCCOCCNC(=O)COCCOCCNC(=O)CC[C@H](NC(=O)CCCCCCCCCCCCCCCCC(=O)O)C(=O)O)C(=O)N[C@@H](CCC(N)=O)C(=O)N[C@H](C(=O)N[C@@H](CC(C)C)C(=O)N[C@@H](CC(C)C)C(=O)N[C@@H](CCCCN)C(=O)N[C@@H](CCC(N)=O)C(=O)N[C@@H](CCC(=O)O)C(=O)N[C@@H](CCCNC(=N)N)C(=O)N[C@@H](CCC(N)=O)C(=O)N[C@@H](CCCCN)C(=O)N[C@@H](CCCCN)C(=O)NC(C)(C)C(=O)N[C@@H](CCCNC(=N)N)C(=O)N[C@@H](CCC(N)=O)C(=O)N[C@@H](CCCCN)C(=O)N[C@@H](C)C(=O)N[C@@H](CCC(=O)O)C(=O)N[C@@H](CCCCN)C(=O)N[C@@H](CC(N)=O)C(=O)N[C@@H](CCCCN)C(=O)N[C@@H](CCC(N)=O)C(=O)N[C@H](C(=O)N[C@@H](CC(C)C)C(=O)N[C@@H](C)C(=O)N[C@@H](CCC(N)=O)C(=O)N[C@H](C(N)=O)C(C)C)[C@@H](C)CC)[C@@H](C)CC)[C@@H](C)CC)C(C)C)C(C)C
In the case of B3, the “EC50 [nM] 0% HSA (cAMP, HTRF)” value was over 100 nM and the “Emax (%) (100% = Sauvagine at 100 nM)” value came out at 0.4%.

B4: peptide of SEQ ID NO: 122 (peptide)
peptide: IVLSLDVPIKLK([AEEA-AEEA-γGlu-C18 diacid])QILLKQERQKKQRQQAEKNKQILAQV-NH2
modifications: N-terminus assumed
SMILES: CC[C@H](C)[C@H](N)C(=O)N[C@H](C(=O)N[C@@H](CC(C)C)C(=O)N[C@@H](CO)C(=O)N[C@@H](CC(C)C)C(=O)N[C@@H](CC(=O)O)C(=O)N[C@H](C(=O)N1CCC[C@H]1C(=O)N[C@H](C(=O)N[C@@H](CCCCN)C(=O)N[C@@H](CC(C)C)C(=O)N[C@@H](CCCCNC(=O)COCCOCCNC(=O)COCCOCCNC(=O)CC[C@H](NC(=O)CCCCCCCCCCCCCCCCC(=O)O)C(=O)O)C(=O)N[C@@H](CCC(N)=O)C(=O)N[C@H](C(=O)N[C@@H](CC(C)C)C(=O)N[C@@H](CC(C)C)C(=O)N[C@@H](CCCCN)C(=O)N[C@@H](CCC(N)=O)C(=O)N[C@@H](CCC(=O)O)C(=O)N[C@@H](CCCNC(=N)N)C(=O)N[C@@H](CCC(N)=O)C(=O)N[C@@H](CCCCN)C(=O)N[C@@H](CCCCN)C(=O)N[C@@H](CCC(N)=O)C(=O)N[C@@H](CCCNC(=N)N)C(=O)N[C@@H](CCC(N)=O)C(=O)N[C@@H](CCC(N)=O)C(=O)N[C@@H](C)C(=O)N[C@@H](CCC(=O)O)C(=O)N[C@@H](CCCCN)C(=O)N[C@@H](CC(N)=O)C(=O)N[C@@H](CCCCN)C(=O)N[C@@H](CCC(N)=O)C(=O)N[C@H](C(=O)N[C@@H](CC(C)C)C(=O)N[C@@H](C)C(=O)N[C@@H](CCC(N)=O)C(=O)N[C@H](C(N)=O)C(C)C)[C@@H](C)CC)[C@@H](C)CC)[C@@H](C)CC)C(C)C)C(C)C
For the molecule B4, the “EC50 [nM] 0% HSA (cAMP, HTRF)” value is over 100 nM and the “Emax (%) (100% = Sauvagine at 100 nM)” value turned out to be 6.9%.

B5: peptide of SEQ ID NO: 118 (peptide)
peptide: IVLSLD[dV]PIKLK([AEEA-AEEA-γGlu-C18 diacid])QILLKQERQK[Aib]QRQKAEKNKQILAQV-NH2
modifications: N-terminus assumed
SMILES: CC[C@H](C)[C@H](N)C(=O)N[C@H](C(=O)N[C@@H](CC(C)C)C(=O)N[C@@H](CO)C(=O)N[C@@H](CC(C)C)C(=O)N[C@@H](CC(=O)O)C(=O)N[C@@H](C(=O)N1CCC[C@H]1C(=O)N[C@H](C(=O)N[C@@H](CCCCN)C(=O)N[C@@H](CC(C)C)C(=O)N[C@@H](CCCCNC(=O)COCCOCCNC(=O)COCCOCCNC(=O)CC[C@H](NC(=O)CCCCCCCCCCCCCCCCC(=O)O)C(=O)O)C(=O)N[C@@H](CCC(N)=O)C(=O)N[C@H](C(=O)N[C@@H](CC(C)C)C(=O)N[C@@H](CC(C)C)C(=O)N[C@@H](CCCCN)C(=O)N[C@@H](CCC(N)=O)C(=O)N[C@@H](CCC(=O)O)C(=O)N[C@@H](CCCNC(=N)N)C(=O)N[C@@H](CCC(N)=O)C(=O)N[C@@H](CCCCN)C(=O)NC(C)(C)C(=O)N[C@@H](CCC(N)=O)C(=O)N[C@@H](CCCNC(=N)N)C(=O)N[C@@H](CCC(N)=O)C(=O)N[C@@H](CCCCN)C(=O)N[C@@H](C)C(=O)N[C@@H](CCC(=O)O)C(=O)N[C@@H](CCCCN)C(=O)N[C@@H](CC(N)=O)C(=O)N[C@@H](CCCCN)C(=O)N[C@@H](CCC(N)=O)C(=O)N[C@H](C(=O)N[C@@H](CC(C)C)C(=O)N[C@@H](C)C(=O)N[C@@H](CCC(N)=O)C(=O)N[C@H](C(N)=O)C(C)C)[C@@H](C)CC)[C@@H](C)CC)[C@@H](C)CC)C(C)C)C(C)C
As to B5, the “EC50 [nM] 0% HSA (cAMP, HTRF)” value was over 100 nM and the “Emax (%) (100% = Sauvagine at 100 nM)” value was 1.5%.

B6: peptide of SEQ ID NO: 124 (peptide)
peptide: IVLSLDVPIKLK([AEEA-AEEA-γGlu-C18 diacid])QILLKQARQK[Aib]QRAQAEKNKRILERV-NH2
modifications: N-terminus assumed
SMILES: CC[C@H](C)[C@H](N)C(=O)N[C@H](C(=O)N[C@@H](CC(C)C)C(=O)N[C@@H](CO)C(=O)N[C@@H](CC(C)C)C(=O)N[C@@H](CC(=O)O)C(=O)N[C@H](C(=O)N1CCC[C@H]1C(=O)N[C@H](C(=O)N[C@@H](CCCCN)C(=O)N[C@@H](CC(C)C)C(=O)N[C@@H](CCCCNC(=O)COCCOCCNC(=O)COCCOCCNC(=O)CC[C@H](NC(=O)CCCCCCCCCCCCCCCCC(=O)O)C(=O)O)C(=O)N[C@@H](CCC(N)=O)C(=O)N[C@H](C(=O)N[C@@H](CC(C)C)C(=O)N[C@@H](CC(C)C)C(=O)N[C@@H](CCCCN)C(=O)N[C@@H](CCC(N)=O)C(=O)N[C@@H](C)C(=O)N[C@@H](CCCNC(=N)N)C(=O)N[C@@H](CCC(N)=O)C(=O)N[C@@H](CCCCN)C(=O)NC(C)(C)C(=O)N[C@@H](CCC(N)=O)C(=O)N[C@@H](CCCNC(=N)N)C(=O)N[C@@H](C)C(=O)N[C@@H](CCC(N)=O)C(=O)N[C@@H](C)C(=O)N[C@@H](CCC(=O)O)C(=O)N[C@@H](CCCCN)C(=O)N[C@@H](CC(N)=O)C(=O)N[C@@H](CCCCN)C(=O)N[C@@H](CCCNC(=N)N)C(=O)N[C@H](C(=O)N[C@@H](CC(C)C)C(=O)N[C@@H](CCC(=O)O)C(=O)N[C@@H](CCCNC(=N)N)C(=O)N[C@H](C(N)=O)C(C)C)[C@@H](C)CC)[C@@H](C)CC)[C@@H](C)CC)C(C)C)C(C)C
In the case of B6, the “EC50 [nM] 0% HSA (cAMP, HTRF)” value is over 100 nM and the “Emax (%) (100% = Sauvagine at 100 nM)” value is -2.5%.
